Test results from the supplement of paper PMC10126150.
± gives the standard deviation of the averaged measurements.

Tested on: ATP
Assay: switch fluorescence ratio, 500 uM ATP over buffer (Cy3 cluster intensity, sum of 5 cycles each) (fold (ratio)); higher = stronger signal-on switching upon ATP binding; sequences stand for … in TCGTCGGCAGCGTCAGATGTGTATAAGAGACAGTTTTTTTTTTTTTTTTTTTTTTTTT…TC
Settings: aptamer strand: ATP DNA aptamer (quencher-CACCTGGGGGAGTATTGCGGAGGAAGG + anchor), 100 nM annealed; ATP concentration: 500 uM
Procedure, shortened: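 Exposure to 500 uM ATP lasted 15 min at 22 °C before imaging, and a selection-buffer image was taken beforehand, for Cy3-labelled switching-strand clusters on a modified Illumina MiSeq flow-cell annealed to 100 nM quencher-labelled ATP aptamer. Five buffer/ATP cycles were run with NaOH stripping and re-annealing between them. The fluorescence ratio per cluster is summed target-cycle over summed buffer-cycle Cy3 intensity, averaged per switch-domain sequence. Clusters outside 100-1000 RFU were excluded.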

| Sequence | switch fluorescence ratio |
| --- | --- |
| TACTTAATAG | 1.03 ± 0.0015 |
| TACTTAGA | 1.04 ± 0.015 |
| TACTTAGCGA | 1.18 ± 0.044 |
| TACTTAGGAT | 1.02 ± 0.044 |
| TACTTAGGTG | 1.17 ± 0.12 |
| TACTTATATG | 1.03 ± 0.016 |
| TACTTATTGT | 0.9755 ± 0.0083 |
| TACTTGTGTG | 0.988 ± 0.011 |
| TACTTGTTTC | 1.01 ± 0.027 |
| TACTTTAATT | 1.04 ± 0.014 |
| TACTTTAGGG | 1.04 ± 0.024 |
| TACTTTGCGG | 1.01 ± 0.063 |
| TACTTTGGGC | 1.03 ± 0.065 |
| TACTTTTATA | 1.03 ± 0.017 |
| TAGAAAAGCA | 0.997 ± 0.024 |
| TAGAAAAGGG | 1.03 ± 0.031 |
| TAGAAAAGGT | 0.974 ± 0.028 |
| TAGAAAATAA | 0.995 ± 0.021 |
| TAGAAACCTT | 1.81 ± 1.1 |
| TAGAAAGGGC | 1.01 ± 0.08 |
| TAGAAATTAT | 1.19 ± 0.38 |
| TAGAACGGGG | 0.9978 ± 0.0022 |

| Sequence | switch fluorescence ratio |
| --- | --- |
| TAGAAGGGCA | 0.988 ± 0.015 |
| TAGAAGGGGG | 0.965 ± 0.016 |
| TAGAAGTTTG | 0.976 ± 0.026 |
| TAGAATATAT | 1.78 ± 1 |
| TAGAATTAGG | 0.987 ± 0.037 |
| TAGAATTTGG | 1.01 ± 0.06 |
| TAGACACAGC | 1.02 ± 0.12 |
| TAGACCATGT | 1.02 ± 0.034 |
| TAGACGTCGT | 0.965 ± 0.024 |
| TAGACTTATG | 1.04 ± 0.02 |
| TAGAGAAATA | 1.01 ± 0.064 |
| TAGAGAATGG | 0.994 ± 0.0086 |
| TAGAGACTGA | 1.023 ± 0.0022 |
| TAGAGCACGG | 1.02 ± 0.012 |
| TAGAGCAGCT | 1.03 ± 0.021 |
| TAGAGGAAGG | 0.979 ± 0.021 |
| TAGAGGAGGC | 0.996 ± 0.017 |
| TAGAGGGCTG | 1.01 ± 0.016 |
| TAGAGGGGAT | 0.985 ± 0.027 |
| TAGAGGGGGA | 0.987 ± 0.018 |
| TAGAGGGTTG | 0.969 ± 0.02 |
| TAGAGGGTTT | 1.02 ± 0.045 |

| Sequence | switch fluorescence ratio |
| --- | --- |
| TAGAGGTTGG | 0.981 ± 0.042 |
| TAGAGTAACA | 1 ± 0.035 |
| TAGAGTCTTT | 0.994 ± 0.013 |
| TAGAGTTATT | 1.01 ± 0.014 |
| TAGAGTTGTT | 0.984 ± 0.03 |
| TAGATAGAGT | 0.994 ± 0.024 |
| TAGATATTTT | 0.986 ± 0.032 |
| TAGATCAAG | 1.04 ± 0.028 |
| TAGATTCGCT | 0.993 ± 0.039 |
| TAGATTCGTT | 0.9907 ± 0.0071 |
| TAGATTGAAA | 0.986 ± 0.028 |
| TAGATTGGGT | 0.976 ± 0.033 |
| TAGCAAGTGG | 0.998 ± 0.043 |
| TAGCAATGAA | 1.53 ± 0.057 |
| TAGCACGGAT | 1.02 ± 0.038 |
| TAGCAGATCA | 0.994 ± 0.024 |
| TAGCAGGGGG | 1.03 ± 0.011 |
| TAGCAGGTTA | 1 ± 0.016 |
| TAGCATGTGG | 1.0006 ± 0.0008 |
| TAGCCTTTGG | 0.978 ± 0.034 |
| TAGCCTTTTT | 0.955 ± 0.015 |
| TAGCGAGGGG | 0.98529 ± 0.00026 |

| Sequence | switch fluorescence ratio |
| --- | --- |
| TAGCGATTGT | 1.02 ± 0.062 |
| TAGCGCCCCG | 0.987 ± 0.016 |
| TAGCGGGCGT | 0.964 ± 0.026 |
| TAGCGGGGGG | 1.02 ± 0.046 |
| TAGCGGGTTG | 1.03 ± 0.036 |
| TAGCGTCTGT | 0.983 ± 0.02 |
| TAGCGTTTGG | 1.01 ± 0.045 |
| TAGCTAGTCG | 1.01 ± 0.039 |
| TAGCTCCGTA | 1.09 ± 0.036 |
| TAGCTGTTCG | 0.9887 ± 0.004 |
| TAGCTTCTGC | 0.907 ± 0.063 |
| TAGCTTTTAT | 0.996 ± 0.032 |
| TAGGAAAAAA | 1.03 ± 0.033 |
| TAGGAAAGAA | 1.03 ± 0.028 |
| TAGGAAATTA | 1 ± 0.015 |
| TAGGAAGGTT | 0.9879 ± 0.0036 |
| TAGGAATACG | 1.24 ± 0.036 |
| TAGGACGGGT | 0.9932 ± 0.0054 |
| TAGGAGCGTG | 1.02 ± 0.044 |
